Measurements as given in the RNAGym collection of RNA variant scans (doi:10.1021/acssynbio.7b00057).

B1: Pistol ribozyme (parent)
chain: GGGUCGUUGUUCCAUAAUCGCGUGGAUAUGGCACGCAAGUUUCUACCGGGCACCGUAAAUGUCCGACUGGAGCCGUUCGGGCGGCUAUAAACAGACCUCAGGCCCGAAGCGUGGCGGCACCUGCCGCCGGUGGUAAAAAAGAUCGGAAGAGCACACGUCU

Variants of: B1
Experiment: aptazyme ON/OFF ratio, guanine; higher = stronger switching; co-transcriptional cleavage with and without guanine

| Variant | aptazyme ON/OFF ratio |
| --- | --- |
| U8C G9U U10G U11A C13G | 1.13 |
| U8C G9U U10G U11A C13A | 1.1 |
| U8C G9U U10G U11A C13U | 1.14 |
| U8C G9U U10C U11C C12A C13G | 1.62 |
| U8C G9U U10C U11C C12A C13U | 1.07 |
| U8C G9U U10C U11C C12A C13A | 1.09 |
| U8C G9U U10G U11C C12A C13A | 1.22 |
| U8C G9U U10G U11C C12A C13U | 1.52 |
| U8C G9U U10G U11C C12A C13G | 1.19 |
| U8C G9U U10C C12U C13G | 1.07 |
| U8C G9U U10C C12U C13U | 1.16 |
| U8C G9U U10C C12U C13A | 1.06 |
| U8C G9U U10A C12A | 1.8 |
| U8C G9U U10A C12U | 1.56 |
| U8C G9U U10A C12G | 1.27 |
| U8C G9U U10C U11G C13U | 1.28 |
| U8C G9U U10C U11G C13A | 1.23 |
| U8C G9U U10C U11G C13G | 1.2 |
| U8C G9U U10A U11C C12U | 1.11 |
| U8C G9U U10A U11C C12G | 1.21 |
| U8C G9U U10A U11C C12A | 1.37 |
| U8C G9U U10A U11A | 2.18 |
| U8C G9U U10A U11C | 1.06 |
| U8C G9U U10A U11G | 1.74 |

| Variant | aptazyme ON/OFF ratio |
| --- | --- |
| U8C U10A U11A C12A C13G | 1.07 |
| U8C U10A U11A C12A C13A | 1.19 |
| U8C U10A U11A C12A C13U | 1.12 |
| U8C G9U U10C U11C | 1.05 |
| U8C G9U U10C U11G | 1.33 |
| U8C G9U U10C U11A | 1.44 |
| U8C G9U U11C C13A | 1.03 |
| U8C G9U U11C C13G | 1.03 |
| U8C G9U U11C C13U | 1.01 |
| U8C U10A U11G C12A C13A | 1.24 |
| U8C U10A U11G C12A C13G | 1.26 |
| U8C U10A U11G C12A C13U | 1.33 |
| U8C U10A U11C C12U C13U | 1.06 |
| U8C U10A U11C C12U C13A | 1.06 |
| U8C U10A U11C C12U C13G | 1.07 |
| U8C U10A U11G C12U C13A | 1.32 |
| U8C U10A U11G C12U C13U | 1.27 |
| U8C U10A U11G C12U C13G | 1.22 |
| U8C G9U U10A U11A C12U | 1.48 |
| U8C G9U U10A U11A C12G | 1.32 |
| U8C G9U U10A U11A C12A | 1.39 |
| U8C U10A C12G C13U | 1.26 |
| U8C U10A C12G C13G | 1.14 |
| U8C U10A C12G C13A | 1.17 |

| Variant | aptazyme ON/OFF ratio |
| --- | --- |
| U8C G9U U11G | 1.48 |
| U8C G9U U11C | 1.07 |
| U8C G9U U11A | 1.35 |
| U8C G9U U10G C12G C13G | 1.21 |
| U8C G9U U10G C12G C13U | 1.3 |
| U8C G9U U10G C12G C13A | 1.3 |
| U8C G9U U10G U11C C12G C13G | 1.26 |
| U8C G9U U10G U11C C12G C13U | 1.2 |
| U8C G9U U10G U11C C12G C13A | 1.22 |
| U8C G9U U10A U11G C12G C13U | 1.14 |
| U8C G9U U10A U11G C12G C13A | 1.13 |
| U8C G9U U10A U11G C12G C13G | 1.12 |
| U8C G9U U10C U11C C13A | 1.03 |
| U8C G9U U10C U11C C13U | 1.04 |
| U8C G9U U10C U11C C13G | 1.02 |
| U8C G9U U10A U11C C13G | 1.06 |
| U8C G9U U10A U11C C13U | 1.02 |
| U8C G9U U10A U11C C13A | 1.09 |
| U8C G9U U10G U11A C12G C13A | 1.16 |
| U8C G9U U10G U11A C12G C13U | 1.12 |
| U8C G9U U10G U11A C12G C13G | 1.33 |
| U8C U10A C12A C13G | 1.1 |
| U8C U10A C12A C13A | 1.26 |
| U8C U10A C12A C13U | 1.18 |

| Variant | aptazyme ON/OFF ratio |
| --- | --- |
| U8C G9U U10A U11C C12G C13G | 1.28 |
| U8C G9U U10A U11C C12G C13A | 1.25 |
| U8C G9U U10A U11C C12G C13U | 1.31 |
| U8C U10C C12G | 1.29 |
| U8C U10C C12A | 1.34 |
| U8C U10C C12U | 2.98 |
| U8C G9U U10A C12G C13G | 1.13 |
| U8C G9U U10A C12G C13A | 1.27 |
| U8C G9U U10A C12G C13U | 1.17 |
| U8C G9U U10G U11C | 1.13 |
| U8C G9U U10G U11G | 2.19 |
| U8C G9U U10G U11A | 1.13 |
| U8C G9U C12U | 1.42 |
| U8C G9U C12G | 1.42 |
| U8C U10A U11C C12A C13G | 1.07 |
| U8C U10A U11C C12A C13A | 1.11 |
| U8C U10A U11C C12A C13U | 1.08 |
| U8C G9U U11A C12U C13A | 1.36 |
| U8C G9U U11A C12U C13U | 1.17 |
| U8C G9U U11A C12U C13G | 1.12 |
| U8C U10A U11A | 1.18 |
| U8C U10A U11G | 1.29 |
| U8C U10A U11C | 1.02 |
| U8C U10A C13G | 1.05 |

| Variant | aptazyme ON/OFF ratio |
| --- | --- |
| U8C U10A C13A | 1.07 |
| U8C U10A C13U | 1.05 |
| U8C G9U U10C C12G C13A | 1.12 |
| U8C G9U U10C C12G C13U | 1.24 |
| U8C G9U U10C C12G C13G | 1.19 |
| U8C G9U U10C C12A C13U | 1.19 |
| U8C G9U U10C C12A C13G | 1.11 |
| U8C G9U U10C C12A C13A | 1.1 |
| U8C G9U U11G C12G C13A | 1.19 |
| U8C G9U U11G C12G C13U | 1.09 |
| U8C G9U U11G C12G C13G | 1.1 |
| U8C G9U U11A C13U | 1.33 |
| U8C G9U U11A C13A | 1.27 |
| U8C G9U U11A C13G | 1.03 |
| U8C G9U U10A U11A C13A | 1.15 |
| U8C G9U U10A U11A C13G | 1.07 |
| U8C G9U U10A U11A C13U | 1.22 |
| U8C G9U U10G U11A C12A C13G | 1.17 |
| U8C G9U U10G U11A C12A C13A | 1.44 |
| U8C G9U U10G U11A C12A C13U | 1.72 |
| U8C U10A U11G C12G C13A | 1.43 |
| U8C U10A U11G C12G C13G | 1.39 |
| U8C U10A U11G C12G C13U | 1.28 |
| U8C G9U U11C C12A | 1.12 |

| Variant | aptazyme ON/OFF ratio |
| --- | --- |
| U8C G9U U11C C12U | 1.09 |
| U8C G9U U11C C12G | 1.24 |
| U8C G9U U11G C12A C13G | 1.18 |
| U8C G9U U11G C12A C13A | 1.16 |
| U8C G9U U11G C12A C13U | 1.26 |
| U8C G9U U10G U11G C12U C13G | 1.08 |
| U8C G9U U10G U11G C12U C13U | 1.15 |
| U8C G9U U10G U11G C12U C13A | 1.11 |
| U8C G9U U10A U11C C12A C13U | 1.24 |
| U8C G9U U10A U11C C12A C13A | 1.33 |
| U8C G9U U10A U11C C12A C13G | 1.08 |
| U8C G9U U11C C12A C13U | 1.18 |
| U8C G9U U11C C12A C13G | 1.04 |
| U8C G9U U11C C12A C13A | 1.11 |
| U8C G9U U10G | 2.84 |
| U8C G9U U10C | 1.87 |
| U8C G9U U10A | 1.42 |
| U8C G9U U10G C12U C13A | 1.28 |
| U8C G9U U10G C12U C13U | 1.01 |
| U8C G9U U10G C12U C13G | 1.11 |
| U8C G9U C12A C13U | 1.19 |
| U8C G9U U11G C12U C13U | 1.14 |
| U8C G9U U11G C12U C13G | 1.15 |
| U8C G9U U11G C12U C13A | 1.16 |

| Variant | aptazyme ON/OFF ratio |
| --- | --- |
| U8C G9U U10G C12A C13U | 1.57 |
| U8C G9U U10G C12A C13G | 1.13 |
| U8C G9U U10G C12A C13A | 1.48 |
| U8C G9U U10G U11G C12A C13G | 1.07 |
| U8C G9U U10G U11G C12A C13U | 1.17 |
| U8C G9U U10G U11G C12A C13A | 1.14 |
| U8C G9U U10C U11G C12A C13A | 1.19 |
| U8C G9U U10C U11G C12A C13G | 1.17 |
| U8C G9U U10C U11G C12A C13U | 1.12 |
| U8C G9U U10C U11C C12G C13A | 1.06 |
| U8C G9U U10C U11C C12G C13G | 1.15 |
| U8C G9U U10C U11C C12G C13U | 1.07 |
| U8C G9U U10C C13G | 1.04 |
| U8C G9U U10C C13U | 1.27 |
| U8C G9U U10C C13A | 1.03 |
| U8C U10A U11A C12U C13G | 1.3 |
| U8C U10A U11A C12U C13A | 1.18 |
| U8C U10A U11A C12U C13U | 1.26 |
| U8C G9U U10C U11C C12U C13A | 1.07 |
| U8C G9U U10C U11C C12U C13G | 1.05 |
| U8C G9U U10C U11C C12U C13U | 1.07 |
| U8C U10C | 2.68 |
| U8C U10A | 1.1 |
